The target of the assay is T1, Sortilin receptor on HEK293 cells (UniProt Q99523 78-831, limits assumed).
T1 construct: whole, on cells
Nature of the assay: +/- matrix drawn left of the bar chart (Cathepsin D ELISA, HEK293 cells); the binding assay behind the marks is not given. A general note: In an ELISA, binding on a coated surface is turned into a signal by an enzyme label.

We go through 1 molecule from patent US20250000992A1 (Eli Lilly, published 2025).

B1: His-PGRN (ligand)
single chain: HHHHHHGGGGQGGGGQGGGGQENLYFQSGGGGQTRCPDGQFCPVACCLDPGGASYSCCRPLLDKWPTTLSRHLGGPCQVDAHCSAGHSCIFTVSGTSSCCPFPEAVACGDGHHCCPRGFHCSADGRSCFQRSGNNSVGAIQCPDSQFECPDFSTCCVMVDGSWGCCPMPQASCCEDRVHCCPHGAFCDLVHTRCITPTGTHPLAKKLPAQRTNRAVALSSSVMCPDARSRCPDGSTCCELPSGKYGCCPMPNATCCSDHLHCCPQDTVCDLIQSKCLSKENATTDLLTKLPAHTVGDVKCDMEVSCPDGYTCCRLQSGAWGCCPFTQAVCCEDHIHCCPAGFTCDTQKGTCEQGPHQVPWMEKAPAHLSLPDPQALKRDVPCDNVSSCPSSDTCCQLTSGEWGCCPIPEAVCCSDHQHCCPQGYTCVAEGQCQRGSEIVAGLEKMPARRASLSHPRDIGCDQHTSCPVGQTCCPSLGGSWACCQLPHAVCCEDRQHCCPAGYTCNVKARSCEKEVVSAQPATFLARSPHVGVKDVECGEGHFCHDNQTCCRDNRQGWACCPYRQGVCCADRRHCCPAGFRCAARGTKCLRREAPRWDAPLRDPALRQLL
notes: 55; also called His tagged PGRN; His-Tagged PGRN
Consider B1, for which the binding result is “binds”.
